Blank lines part the entries; values can stand above or below the sequence they belong to.
Experiments:
HLA-B*15:02 = test: IEDB peptide-MHC binding, purified MHC/competitive/fluorescence; filed as Kd, often an IC50 or EC50 that approximates it; ≥ and ≤ were set here for values at or beyond the usual limits of such assays
HLA-B*27:05 [1] = test: IEDB peptide-MHC binding, purified MHC/competitive/fluorescence; ≥ and ≤ were set here for values at or beyond the usual limits of such assays; conditions: source organism: hepatitis C virus genotype 1a
HLA-A*02:19 [2] = test: IEDB peptide-MHC binding, purified MHC/competitive/fluorescence; filed as Kd, often an IC50 or EC50 that approximates it; ≥ and ≤ were set here for values at or beyond the usual limits of such assays; conditions: source organism: Encephalitozoon cuniculi GB-M1
HLA-A*02:12 [3] = test: as above; conditions: source organism: Encephalitozoon cuniculi GB-M1
HLA-A*02:16 [4] = test: as above; conditions: source organism: Encephalitozoon cuniculi GB-M1
HLA-A*02:50 = test: as above
HLA-A*02:06 [5] = test: as above; conditions: source organism: Encephalitozoon cuniculi GB-M1
HLA-A*02:03 = test: as above; conditions: source organism: Encephalitozoon cuniculi GB-M1
HLA-A*02:01 [6] = test: as above; conditions: source organism: Encephalitozoon cuniculi GB-M1
HLA-A*69:01 [7] = test: as above; conditions: source organism: Encephalitozoon cuniculi GB-M1
HLA-A*02:11 [8] = test: as above; conditions: source organism: Encephalitozoon cuniculi GB-M1
HLA-B*35:01 = test: IEDB peptide-MHC binding, cellular MHC/competitive/fluorescence; ≥ and ≤ were set here for values at or beyond the usual limits of such assays; conditions: source organism: Mycobacterium tuberculosis H37Rv
HLA-A*02:19 [9] = test: IEDB peptide-MHC binding, purified MHC/direct/fluorescence; filed as Kd, often an IC50 or EC50 that approximates it; ≥ and ≤ were set here for values at or beyond the usual limits of such assays
HLA-B*27:03 = test: as above; conditions: source organism: Entamoeba histolytica HM-1:IMSS
HLA-A*02:12 [10] = test: as above
HLA-A*02:16 [11] = test: as above
HLA-B*15:17 = test: as above; conditions: source organism: Entamoeba histolytica HM-1:IMSS
HLA-A*26:01 = test: as above; conditions: source organism: Entamoeba histolytica HM-1:IMSS
HLA-A*24:03 = test: as above; conditions: source organism: Entamoeba histolytica HM-1:IMSS
HLA-A*29:02 = test: as above; conditions: source organism: Entamoeba histolytica HM-1:IMSS
HLA-A*02:06 [12] = test: as above
HLA-B*57:01 = test: as above; conditions: source organism: Entamoeba histolytica HM-1:IMSS
HLA-A*02:01 [13] = test: as above
HLA-B*46:01 = test: as above
HLA-A*69:01 [14] = test: as above; conditions: source organism: Entamoeba histolytica HM-1:IMSS
HLA-A*02:11 [15] = test: as above
HLA-B*39:01 = test: as above; conditions: source organism: Entamoeba histolytica HM-1:IMSS
HLA-A*03:01 = test: as above
HLA-B*51:01 = test: as above; conditions: source organism: Entamoeba histolytica HM-1:IMSS
HLA-C*15:02 = test: as above; conditions: source organism: Bacillus anthracis str. A2012
HLA-C*07:02 = test: as above; conditions: source organism: Bacillus anthracis str. A2012
HLA-C*05:01 = test: as above; conditions: source organism: Bacillus anthracis str. A2012
HLA-B*15:42 = test: IEDB peptide-MHC binding, purified MHC/competitive/fluorescence; filed as Kd, often an IC50 or EC50 that approximates it; ≥ and ≤ were set here for values at or beyond the usual limits of such assays; conditions: source organism: Bacillus anthracis str. A2012
HLA-C*14:02 = test: as above; conditions: source organism: Bacillus anthracis str. A2012
HLA-B*83:01 = test: as above; conditions: source organism: Bacillus anthracis str. A2012
HLA-B*45:06 = test: as above; conditions: source organism: Bacillus anthracis str. A2012
HLA-B*27:20 = test: as above; conditions: source organism: Bacillus anthracis str. A2012
HLA-B*08:01 = test: IEDB peptide-MHC binding, purified MHC/direct/fluorescence; filed as Kd, often an IC50 or EC50 that approximates it; ≥ and ≤ were set here for values at or beyond the usual limits of such assays; conditions: source organism: Salmonella enterica subsp. enterica serovar Typhimurium str. LT2
HLA-B*07:02 = test: as above; conditions: source organism: Salmonella enterica
HLA-B*15:01 = test: as above; conditions: source organism: Salmonella enterica
HLA-B*27:05 [16] = test: as above
HLA-B*58:01 = test: as above; conditions: source organism: Salmonella enterica
HLA-B*44:02 = test: as above; conditions: source organism: Salmonella enterica
HLA-B*40:01 = test: as above; conditions: source organism: Salmonella enterica
HLA-B*73:01 = test: as above; conditions: source organism: Giardia lamblia ATCC 50803
HLA-B*48:01 = test: as above; conditions: source organism: Giardia lamblia ATCC 50803
[17] = source organism: Entamoeba histolytica HM-1:IMSS
[18] = source organism: Salmonella enterica subsp. enterica serovar Typhimurium str. LT2
[19] = source organism: Salmonella enterica

Sequence: GMRVLGTNY
Kd (HLA-B*15:02; source organism: Vibrio cholerae 2740-80): 229 nM

Sequence: GRAVICGKY
IC50 (HLA-B*27:05 [1]): 32 nM

Kd (HLA-A*02:19 [2]): 486 nM | Kd (HLA-A*02:12 [3]): 122 nM | Kd (HLA-A*02:16 [4]): ≤ 1 nM | Kd (HLA-A*02:50; source organism: Encephalitozoon cuniculi GB-M1): 0.3 nM | Kd (HLA-A*02:06 [5]): ≤ 1 nM | Kd (HLA-A*02:03): 1.6 nM | Kd (HLA-A*02:01 [6]): 2.5 nM | Kd (HLA-A*69:01 [7]): 423 nM | Kd (HLA-A*02:11 [8]): ≤ 1 nM
Sequence: GVYGGLCLA

Sequence: LPAKFLEGF
IC50 (HLA-B*35:01): 700 nM

Sequence: RQRHYFDSA
Kd (HLA-A*02:19 [9]; [17]): ≥ 20000 nM | Kd (HLA-B*27:03): ≥ 20000 nM | Kd (HLA-A*02:12 [10]; [17]): ≥ 20000 nM | Kd (HLA-A*02:16 [11]; [17]): ≥ 20000 nM | Kd (HLA-B*15:17): ≥ 20000 nM | Kd (HLA-A*26:01): ≥ 20000 nM | Kd (HLA-A*24:03): ≥ 20000 nM | Kd (HLA-A*29:02): ≥ 20000 nM | Kd (HLA-A*02:06 [12]; [17]): 4 nM | Kd (HLA-B*57:01): ≥ 20000 nM | Kd (HLA-A*02:01 [13]; [17]): 7000 nM | Kd (HLA-B*46:01; [17]): ≥ 20000 nM | Kd (HLA-A*69:01 [14]): ≥ 20000 nM | Kd (HLA-A*02:11 [15]; [17]): ≥ 20000 nM | Kd (HLA-B*39:01): ≥ 20000 nM | Kd (HLA-A*03:01; [17]): ≥ 20000 nM | Kd (HLA-B*51:01): ≥ 20000 nM

Sequence: WMYYPRSPV
Kd (HLA-C*15:02): ≥ 20000 nM | Kd (HLA-C*07:02): 667 nM | Kd (HLA-C*05:01): ≥ 20000 nM | Kd (HLA-B*15:02; source organism: Bacillus anthracis str. A2012): 391 nM | Kd (HLA-B*15:42): ≥ 5000 nM | Kd (HLA-C*14:02): 6.8 nM | Kd (HLA-B*83:01): ≥ 5000 nM | Kd (HLA-B*45:06): ≥ 5000 nM | Kd (HLA-B*27:20): 0.2 nM

Sequence: WTLETLPRV
Kd (HLA-A*02:19 [9]; [18]): 4 nM | Kd (HLA-A*02:12 [10]; [18]): ≤ 1 nM | Kd (HLA-A*02:16 [11]; [18]): ≤ 1 nM | Kd (HLA-B*08:01): ≥ 20000 nM | Kd (HLA-B*07:02): ≥ 20000 nM | Kd (HLA-A*02:06 [12]; [18]): ≤ 1 nM | Kd (HLA-B*15:01): ≥ 20000 nM | Kd (HLA-B*27:05 [16]; [19]): ≥ 20000 nM | Kd (HLA-A*02:01 [13]; [19]): 28.7 nM | Kd (HLA-B*58:01): ≥ 20000 nM | Kd (HLA-B*46:01; [19]): ≥ 20000 nM | Kd (HLA-B*44:02): ≥ 20000 nM | Kd (HLA-A*02:11 [15]; [18]): ≤ 1 nM | Kd (HLA-B*40:01): ≥ 20000 nM | Kd (HLA-A*03:01; [19]): ≥ 20000 nM | Kd (HLA-A*02:50; source organism: Salmonella enterica subsp. enterica serovar Typhi): 9.4 nM

Sequence: YRYKMPVME
Kd (HLA-B*27:05 [16]; source organism: Giardia lamblia ATCC 50803): 124 nM | Kd (HLA-B*73:01): 1620 nM | Kd (HLA-B*48:01): ≥ 20000 nM

From the Immune Epitope Database (IEDB)
